B1: SEQ ID NO 6 (receptor)
chain: MGHLPKPTLWAEPGSVITMGQPVTLRCQGGQETQEYRLYREKKTAPWITRIPQELVKKGQFPIPSITWEHAGRYRCYYGSDTAGRSESSDPLELVVTGAYIKPTLSAQPSPVVNSGGNVTLQCDSQVAFDGFILCKEGEDEHPQCLNSQPHARGSSRAIFSVGPVSPSRRWWYRCYAYDSNSPYEWSLPSDLLELLVL
B2: SEQ ID NO 24 (receptor)
chain: MGHLPKPTLWAEPGSVITQGSPVTLRCQGGQETQEYRLYREKKTAPWITRIPQELVKKGQFPIPSITWEHAGRYRCYYGSQGGLRSESSDPLELVVTGVYIKPTLSAQPSPVVNSGGNVTLQCDSQVAFDGFILCKEGEDEHPQCLNSQPHARGSSRAIFSVGPVSPSRRWWYRCYAYDSNSPYEWSLPSDLLELLVL
B3: SEQ ID NO 23 (receptor)
chain: MGHLPKPTLQAEPGSVITQGSPVTLRCQGGQETQEYRLYREKKTAPWITRIPQELVKKGQFPIPSITWEHAGRYRCVIQRGTAGRSESSDPLELVVTGVYIKPTLSAQPSPVVNSGGNVTLQCDSQVAFDGFILCKEGEDEHPQCLNSQPHARGSSRAIFSVGPVSPSRRWWYRCYAYDSNSPYEWSLPSDLLELLVL
B4: SEQ ID NO 8 (receptor)
chain: MGHLPKPTLWAEPGSVITLMQPVTLRCQGGQETQEYRLYREKKTAPWITRIPQELVKKGQFPIPSITWEHAGRYRCYYGSDTAGRSESSDPLELVVTGAYIKPTLSAQPSPVVNSGGNVTLQCDSQVAFDGFILCKEGEDEHPQCLNSQPHARGSSRAIFSVGPVSPSRRWWYRCYAYDSNSPYEWSLPSDLLELLVL
B5: SEQ ID NO 28 (receptor)
chain: MGHLPKPTLWAEPGSVITQGSPVTLRCQGGQETQEYRLYREKKTAPWITRIPQELVKKGQFPIPSITWEHAGRYRCYYGSQGGLRSESSDPLELVVTGAYIKPTLSAQPSPVVNSGGNVTLQCDSQVAFDGFILCKEGEDEHPQCLNSQPHARGSSRAIFSVGPVSPSRRWWYRCYAYDSNSPYEWSLPSDLLELLVL
B6: SEQ ID NO 33 (receptor)
chain: MGHLPKPTLWAEPGSVITMDQPVTLRCQGGQETQEYRLYREKKTAPWITRIPQELVKKGQFPIPSITWEHAGRYRCVIQRGTAGRSESSDPLELVVTGVYIKPTLSAQPSPVVNSGGNVTLQCDSQVAFDGFILCKEGEDEHPQCLNSQPHARGSSRAIFSVGPVSPSRRWWYRCYAYDSNSPYEWSLPSDLLELLVL
B7: SEQ ID NO 32 (receptor)
chain: MGHLPKPTLWAEPGSVITMDQPVTLRCQGGQETQEYRLYREKKTAPWITRIPQELVKKGQFPIPSITWEHAGRYRCYYGTQTAGRSESSDPLELVVTGVYIKPTLSAQPSPVVNSGGNVTLQCDSQVAFDGFILCKEGEDEHPQCLNSQPHARGSSRAIFSVGPVSPGRRWWYRCYAYDSNSPYEWSLPSDLLELLVL
B8: SEQ ID NO 30 (receptor)
chain: MGHLPKPTLWAEPGSVITQGSPVTLRCQGGQETQEYRLYREKKTAPWITRIPQELVKKGQFPIPSITWEHAGRYRCMQYTLTAGRSESSDPLELVVTGAYIKPTLSAQPSPVVNSGGNVTLQCDSQVAFDGFILCKEGEDEHPQCLNSQPHARGSSRAIFSVGPVSPSRRWWYRCYAYDSNSPYEWSLPSDLLELLVL
B9: SEQ ID NO 38 (receptor)
chain: MGHLPKPTLWAEPGSVITQGSPVTLRCQGGQETQEYRLYREKKTAPWITRIPQELVKKGQFPIPSITWEHAGRYRCYYGSDTAGRSESSDPLELVVTGIYQAPTLSAQPSPVVNSGGNVTLQCDSQVAFDGFILCKEGEDEHPQCLNSQPHARGSSRAIFSVGPVSPSRRWWYRCYAYDSNSPYEWSLPSDLLELLVL
B10: SEQ ID NO 35 (receptor)
chain: MGHLPKPTLWAEPGSVITQGSPVTLRCQGGQETQEYRLYREKKTAPWITRIPQELVKKGQFPIPSITWEHAGRYRCYYGSDTAGRSESSDPLELVVTGIYRQPTLSAQPSPVVNSGGNVTLQCDSQVAFDGFILCKEGEDEHPQCLNSQPHARGSSRAIFSVGPVSPSRRWWYRCYAYDSNSPYEWSLPSDLLELLVL
B11: SEQ ID NO 26 (receptor)
chain: MGHLPKPTLWAEPGSVITQGSPVTLRCQGGQETQEYRLYREKKTAPWITRIPQELVKKGQFPIPSITWEHAGRYRCMQYTLTAGRSESSDPLELVVTGVYIKPTLSAQPSPVVNSGGNVTLQCDSQVAFDGFILCKEGEDEHPQCLNSQPHARGSSRAIFSVGPVSPSRRWWYRCYAYDSNSPYEWSLPSDLLELLVL
B12: SEQ ID NO 22 (receptor)
chain: MGHLPKPTLWAEPGSVITLSQPVTLRCQGGQETQEYRLYREKKTAPWITRIPQELVKKGQFPIPSITWEHAGRYRCYYGSDTAGRSESSDPLELVVTGVYIKPTLSAQPSPVVNSGGNVTLQCDSQVAFDGFILCKEGEDEHPQCLNSQPHARGSSRAIFSVGPVSPSRRWWYRCYAYDSNSPYEWSLPSDLLELLVL
B13: SEQ ID NO 25 (receptor)
chain: MGHLPKPTLWAEPGSVITQGSPVTLRCQGGQETQEYRLYREKKTAPWITRIPQELVKKGQFPIPSITWEHAGRYRCYYGTQTAGRSESSDPLELVVTGVYIKPTLSAQPSPVVNSGGNVTLQCDSQVAFDGFILCKEGEDEHPQCLNSQPHARGSSRAIFSVGPVSPSRRWWYRCYAYDSNSPYEWSLPSDLLELLVL
B14: SEQ ID NO 7 (receptor)
chain: MGHLPKPTLWAEPGSVITMDQPVTLRCQGGQETQEYRLYREKKTAPWITRIPQELVKKGQFPIPSITWEHAGRYRCYYGSDTAGRSESSDPLELVVTGVYIKPTLSAQPSPVVNSGGNVTLQCDSQVAFDGFILCKEGEDEHPQCLNSQPHARGSSRAIFSVGPVSPGRRWWYRCYAYDSNSPYEWSLPSDLLELLVL
B15: SEQ ID NO 21 (receptor)
chain: MGHLPKPTLWAEPGSVITLFQPVTLRCQGGQETQEYRLYREKKTAPWITRIPQELVKKGQFPIPSITWEHAGRYRCYYGSDTAGRSESSDPLELVVTGAYIKPTLSAQPSPVVNSGGNVTLQCDSQVAFDGFILCKEGEDEHPQCLNSQPHARGSSRAIFSVGPVSPSRRWWYRCYAYDSNSPYEWSLPSDLLELLVL
B16: SEQ ID NO 31 (receptor)
chain: MGHLPKPTLWAEPGSVITMDQPVTLRCQGGQETQEYRLYREKKTAPWITRIPQELVKKGQFPIPSITWEHAGRYRCYYGSQGGLRSESSDPLELVVTGVYIKPTLSAQPSPVVNSGGNVTLQCDSQVAFDGFILCKEGEDEHPQCLNSQPHARGSSRAIFSVGPVSPGRRWWYRCYAYDSNSPYEWSLPSDLLELLVL
B17: SEQ ID NO 27 (receptor)
chain: MGHLPKPTLWAEPGSVITQGSPVTLRCQGGQETQEYRLYREKKTAPWITRIPQELVKKGQFPIPSITWEHAGRYRCYYGSDTSQWSASSDPLELVVTGVYIKPTLSAQPSPVVNSGGNVTLQCDSQVAFDGFILCKEGEDEHPQCLNSQPHARGSSRAIFSVGPVSPSRRWWYRCYAYDSNSPYEWSLPSDLLELLVL
B18: SEQ ID NO 9 (receptor)
chain: MGHLPKPTLWAEPGSVITMQRPVTLRCQGGQETQEYRLYRERKTAPWITRIPQELVKKGQFPIPSITWEHAGRYRCYYGSDTAGRSESSDPLELVVTGAYIKPTLSAQPSPVVNSGGNVTLQCDSQVAFDGFILCKEGEDEHPQCLSSQPHARGSSRAIFSVGPVSPSRRWWYRCYAYDSNSPYEWSLPSDLLELLVL
B19: SEQ ID NO 34 (receptor)
chain: MGHLPKPTLWAEPGSVITMDQPVTLRCQGGQETQEYRLYREKKTAPWITRIPQELVKKGQFPIPSITWEHAGRYRCMQYTLTAGRSESSDPLELVVTGVYIKPTLSAQPSPVVNSGGNVTLQCDSQVAFDGFILCKEGEDEHPQCLNSQPHARGSSRAIFSVGPVSPSRRWWYRCYAYDSNSPYEWSLPSDLLELLVL
B20: SEQ ID NO 36 (receptor)
chain: MGHLPKPTLWAEPGSVITQGSPVTLRCQGGQETQEYRLYREKKTAPWITRIPQELVKKGQFPIPSITWEHAGRYRCYYGSDTAGRSESSDPLELVVTGIYLAPTLSAQPSPVVNSGGNVTLQCDSQVAFDGFILCKEGEDEHPQCLNSQPHARGSSRAIFSVGPVSPSRRWWYRCYAYDSNSPYEWSLPSDLLELLVL
B21: SEQ ID NO 29 (receptor)
chain: MGHLPKPTLWAEPGSVITQGSPVTLRCQGGQETQEYRLYREKKTAPWITRIPQELVKKGQFPIPSITWEHAGRYRCYYGTQTAGRSESSDPLELVVTGAYIKPTLSAQPSPVVNSGGNVTLQCDSQVAFDGFILCKEGEDEHPQCLNSQPHARGSSRAIFSVGPVSPSRRWWYRCYAYDSNSPYEWSLPSDLLELLVL
B22: SEQ ID NO 37 (receptor)
chain: MGHLPKPTLWAEPGSVITQGSPVTLRCQGGQETQEYRLYREKKTAPWITRIPQELVKKGQFPIPSITWEHAGRYRCYYGSDTAGRSESSDPLELVVTGIYKAPTLSAQPSPVVNSGGNVTLQCDSQVAFDGFILCKEGEDEHPQCLNSQPHARGSSRAIFSVGPVSPSRRWWYRCYAYDSNSPYEWSLPSDLLELLVL

By Kd is commonly meant a measure of binding affinity in units of concentration. A word on the koff: it is the rate constant with which the complex falls apart. Lower therefore signals slow dissociation.

This assay addresses HLA-A*0201 loaded with the Carcinoembryonic antigen (CEA)-derived … peptide (biotinylated on the C-terminal biotinylation tag). The assay is described as follows: SPR (Biacore), Example 4.
B1: the Kd was no more than 1000 nM and the koff was no more than 2 s⁻¹.
Taken in the same sequence, the figures for B2 were no more than 1000 nM and no more than 2 s⁻¹.
Taken in the same sequence, the figures for B3 were no more than 1000 nM and no more than 2 s⁻¹.
For B4, in that order: no more than 1000 nM and no more than 2 s⁻¹.
On to B5, for which the Kd is no more than 1000 nM and the koff was no more than 2 s⁻¹.
B6 displayed a Kd of no more than 1000 nM and a koff of no more than 2 s⁻¹.
Molecule B7 displayed a Kd of no more than 1000 nM and a koff of no more than 2 s⁻¹.
Take B8: the Kd is no more than 1000 nM and the dissociation rate constant (koff) is no more than 2 s⁻¹.
For B9, the Kd was no more than 1000 nM and the koff is no more than 2 s⁻¹.
Taken in the same sequence, the figures for B10 were no more than 1000 nM and no more than 2 s⁻¹.
Turning to B11, the dissociation constant Kd was no more than 1000 nM and the off-rate (koff) is no more than 2 s⁻¹.
For B12, in that order: no more than 1000 nM and no more than 2 s⁻¹.
For B13, in that order: no more than 1000 nM and no more than 2 s⁻¹.
For B14, in that order: no more than 1000 nM and no more than 2 s⁻¹.
Turning to B15, the Kd is no more than 1000 nM and the off-rate constant (koff) is no more than 2 s⁻¹.
As to B16, the equilibrium dissociation constant (Kd) was no more than 1000 nM and the koff is no more than 2 s⁻¹.
For B17, in that order: no more than 1000 nM and no more than 2 s⁻¹.
Taken in the same sequence, the figures for B18 were no more than 1000 nM and no more than 2 s⁻¹.
Taken in the same sequence, the figures for B19 were no more than 1000 nM and no more than 2 s⁻¹.
The molecule B20 returned a Kd of no more than 1000 nM and a koff of no more than 2 s⁻¹.
For B21, the dissociation constant (Kd) was no more than 1000 nM and the koff was no more than 2 s⁻¹.
Consider B22, for which the Kd was no more than 1000 nM and the off-rate (koff) is no more than 2 s⁻¹.

These data come from patent US20090208447A1 (MEDIGENE, published 2009).
